US20230050449A1, “METHODS FOR TREATING CANCER USING A COMBINATION OF A PD-1 ANTAGONIST, AN ILT4 ANTAGONIST, AND CHEMOTHERAPEUTIC AGENTS” (Merck Sharp & Dohme LLC, priority 2019, published 2023)

Tested on: participants with advanced solid tumors
Assay: Phase 1 open label, multi-arm, multi-center study of MK-4830 as monotherapy or in combination with pembrolizumab (NCT03564691): safety and tolerability
Type: in vivo, human
Protocol: A phase 1 open label, multi-arm, multi-center study of an anti-ILT4 antibody (“MK-4830”) as monotherapy or in combination with pembrolizumab for participants with advanced solid tumors has been ongoing (NCT03564691).
At the time of the May 10, 2019 data cutoff, a total of 51 participants had received at least 1 dose of MK-4830. In the ongoing MK-4830 monotherapy phase, MK-4830 monotherapy had reached the maximum planned dose level of 1600 mg. In the ongoing MK-4830 plus pembrolizumab combination phase, MK-4830 dose level had reached a maximum dose of 800 mg.
The target dose limiting toxicity (DLT) rate was not reached in any of the cohorts and the maximum tolerated dose (MTD) was not defined.
The most common study-drug related AEs in all participants were arthralgia (9.8%), fatigue (9.8%), decreased appetite (7.8%), diarrhea (7.8%), and pruritus (7.8%). There was one episode of transient Grade 3 blood pressure increase at the 1600 mg dose level in the MK-4830 monotherapy cohort. There were no Grade 4 or 5 drug-related AEs or SAEs.

[1] = of the total 51 treated participants, preliminary data

Substance: MK-4830: anti-ILT4 antibody; light chain SEQ ID NO:5, heavy chain SEQ ID NO:10 (Table 4)
- episodes of transient Grade 3 blood pressure increase (1600 mg dose level, MK-4830 monotherapy cohort): one episode
- grade of the majority of drug-related AEs (51 treated participants, preliminary data): Grade 1
- Grade 4 or 5 drug-related AEs or SAEs (all 51 treated participants): no
- study-drug related AE: arthralgia (all participants (51 treated)): 9.8%
- study-drug related AE: decreased appetite (all participants (51 treated)): 7.8%
- study-drug related AE: diarrhea (all participants (51 treated)): 7.8%
- study-drug related AE: fatigue (all participants (51 treated)): 9.8%
- study-drug related AE: pruritus (all participants (51 treated)): 7.8%
- target dose limiting toxicity (DLT) rate (any of the cohorts, monotherapy up to 1600 mg, combination with pembrolizumab up to 800 mg, May 10, 2019 data cutoff): not reached
- maximum tolerated dose (MTD) (monotherapy up to 1600 mg, combination with pembrolizumab up to 800 mg, May 10, 2019 data cutoff): not defined
- participants with one or more drug-related AEs (number) [1]: 26
- participants with one or more drug-related AEs (percent) [1]: 51%
